In US8016811B2, “Method for transdermal delivery of permeant substances” (priority 2003, dated 2011):

Experiment: Serum insulin concentration profile in hairless rats after transdermal patch over micropores or subcutaneous dosing
Type: in vivo
Text: This example illustrates the ability of the microporation system to mimic the delivery of a subcutaneous infusion of insulin. Hairless rats were purchased and dosed with insulin in accordance with the terms set forth below. The insulin concentration within the serum of the rats was then monitored at given time intervals to provide a blood serum insulin concentration profile.
Three hairless rats were given a 1 U/kg dose of insulin by way of subcutaneous administration. The concentration of insulin in the rats' blood serum was monitored. The average insulin blood serum concentration for the three rats was determined.
Five hairless rats were purchased from Charles River. Jugular vein cannulation was performed the day before the experiment to allow the animals recovering from the surgery.
The experiment was conducted as follows. The rats were anesthetized immediately before the skin treatment, which consisted of cleaning the abdomen side of the rat skin with an alcohol swab. The abdomen was allowed to air dry.
After the abdomen dried, the microporation system was placed longitudinally, and the bottom corners marked, on the cleaned skin site. The cleaned skin site was then microporated using the microporation system. Following microporation, the microporation system was removed and a liquid reservoir patch was placed on the microporated area. The patch was then filled with a 50 IU/ml dose of insulin and a time-zero sample was immediately taken. The remaining samples were taken according to the preset schedule.
After the sample at the 4th hour was taken, the rats were anesthetized to retrieve the donor solution from the liquid reservoir patch. Blood sampling continued until the 8th hour.
Afterward, the test was conducted again, however the patch applied was 2 cm^2 in area. Lastly, the test was performed for a third time, with the patch having a size of 3 cm^2.
Three hairless rats were prepared and tested in accordance with the procedure set forth in Test 1 above. However, for this test, a second generation planar microporation system was used to create the micropores in the abdomen of each rat. In addition, the transdermal patch contained a 50 IU/ml dose of insulin when applied to the microporated area of the skin of each rat.
This test was designed to determine any differences in the types of transdermal patches used to deliver insulin through the micropores. Five hairless rats were prepared and tested in accordance with the procedure set forth in Test 1 above. Following microporation of each rat, an early prototype liquid reservoir patch was applied to two of the rats, while a second generation transdermal patch was used to deliver insulin in the remaining three rats. Each patch contained a 50 IU/ml dose of insulin when applied to the microporated area of the skin of each rat.
A number of rats were prepared in accordance with the procedure set forth in Test 1 above. For those rats that had delivery openings formed on their abdomen, the delivery openings were formed using an early prototype microporation system. Insulin was delivered to the rats using a second generation delivery patch containing the desired concentration of insulin.
The delivery patch was applied to the rats' abdomen without microporation. The rats in this control group were given a […] concentration dose of insulin.
For the other rats in this test, the delivery patch contained insulin in concentrations of 10 IU/ml (6 rats), 25 IU/ml (6 rats), […] or 100 IU/ml (6 rats). The insulin serum concentration was monitored in each of the rats at various intervals of time. The average concentration of the rats for that particular insulin concentration (and whether delivery openings were formed or not) was determined and an insulin serum concentration profile was developed.

Question: With insulin as the substance, how does the “average insulin serum concentration, transdermal through micropores versus subcutaneous” value (50 IU/ml patch for 4 hours (5 rats) vs 1 U/kg subcutaneous (3 rats), FIG. 5) read?
Answer: higher average concentration

Question: And the “duration of higher average insulin serum concentration, transdermal versus subcutaneous” value (50 IU/ml patch for 4 hours vs 1 U/kg subcutaneous, FIG. 5)?
Answer: longer duration

Question: What about the “insulin serum concentration, planar array microporation system versus step and repeat microporation system” value (50 IU/ml patch for 4 hours, FIG. 7) of the same substance?
Answer: slightly lower

Question: What about the “average insulin serum concentration, change with patch size 1 cm^2 to 2 cm^2” value (50 IU/ml patch, 4 rats, FIG. 6) of the same substance?
Answer: roughly doubled

Question: What about the “average insulin serum concentration, change with patch size 2 cm^2 to 3 cm^2” value (50 IU/ml patch, 4 rats, FIG. 6) of the same substance?
Answer: roughly doubled

Question: And the “average insulin concentration, early prototype liquid reservoir patch versus second generation transdermal patch” value (50 IU/ml patch, FIG. 8)?
Answer: very similar

Question: And the “average insulin serum concentration, 100 IU/ml dose in comparison to other doses” value (microporated, 100 IU/ml patch, 6 rats, FIG. 9)?
Answer: very high

Question: What about the “average insulin serum concentration, 50 IU/ml dose versus 25 IU/ml dose” value (microporated, FIG. 9) of the same substance?
Answer: not much difference

Question: And the “average insulin serum concentration, rats without delivery openings” value (patch on non-microporated abdomen, 3 rats, FIG. 9)?
Answer: very low
